Source: the supplement of paper PMC12764529
± gives the half width of the 95% confidence interval.

Columns and labels:
[1] = folding stability dG unfold from chymotrypsin proteolysis; higher = more stable
Method in brief: (§1)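 Bayesian fitting of sequencing counts gave K50 for each design. Unfolding free energy followed by setting this against a sequence-predicted unfolded-state K50 and a shared folded-state K50, either per protease or with trypsin and chymotrypsin combined. The designs, under 80 residues and lacking cysteine, were digested in a PA-tagged cDNA display format at 11 threefold-diluted protease concentrations and without protease, and only those with AlphaFold2 dimer inter-PAE above 15 were kept.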

[2] = folding stability dG unfold (combined trypsin and chymotrypsin); higher = more stable
Method in brief: as §1

[3] = folding stability dG unfold from trypsin proteolysis; higher = more stable
Method in brief: as §1

Row | Sequence | folding stability dG unfold [1] | folding stability dG unfold [2] | folding stability dG unfold [3]
1 | SAMTPETERKLLEAPKTGDVEAVREAAEEIEKEYPGKGLVVTVTVSPLSDGTWEVEVTVELPPNLPELASAG [r14_690_JUSTAS] | 0.27 ± 0.097 kcal/mol | 0.437 ± 0.38 kcal/mol | 0.702 ± 0.12 kcal/mol
2 | SAGGSAMAIFTVTPPDGVPVTERYSFTTPEEVEAAFAAAKAALPPGTALSVTLVPEEEVAAGRPLLSAGGSA [r15_469_JUSTAS] | 1.59 ± 0.043 kcal/mol | 1.23 ± 0.034 kcal/mol | 0.386 ± 0.027 kcal/mol
3 | SAPWVYHVRIEYKGPDGEPVAEHTIMVKTPEALKEQIRKHFGLSPAQIKNIEVEPVIPAEEMNEMQEKGSAG [r14_852_TrROS] | 1.27 ± 0.12 kcal/mol | 0.882 ± 0.094 kcal/mol | 0.204 ± 0.13 kcal/mol
4 | SAGGSAGGKITPEMEKLKKEIADAIKKAFPNKDLKIEVIKIEKTKDGSVIIDIKIGDKIIRIKASAGGSAGG [r6_494_TrMRF] | 1.85 ± 0.12 kcal/mol | 2.16 ± 0.19 kcal/mol | 2.58 ± 0.14 kcal/mol
5 | SAGGMITLTTKTELIGSYRVTYSVTVDPVDDSVVTSTHVTVTPLPPPPPPLPPVPPENPVLPSPRLESAGGS [r8_234_JUSTAS] | 0.56 ± 0.42 kcal/mol | 0.608 ± 0.2 kcal/mol | 0.355 ± 0.15 kcal/mol
6 | SAGGKIWIPMDFLKEIAEEGNIKEIEVNPDDGDMYTIKFPNLADKFGEPVTISIRRPPGGNPWIEIEPSAGG [r13_163_TrROS] | 1.08 ± 0.17 kcal/mol | 0.717 ± 0.15 kcal/mol | 0.107 ± 0.1 kcal/mol
7 | KTISSDELLELLGVSKSELKKLPLEAIVDEVKKALPPGVAVSAKAEPIPENPSYTIVVELKNGEPVTITLDS [r1_340_TrMRF] | 1 ± 0.026 kcal/mol | 0.964 ± 0.12 kcal/mol | 1.06 ± 0.041 kcal/mol
8 | SAGGSPLLVLHIRLRRPGEEREIVIPSDLIEDMPLEEIEEILRALPWIDEAEIELEEFPPLRPDELSAGGSA [r2_282_TrMRF] | 1.98 ± 0.11 kcal/mol | 1.67 ± 0.089 kcal/mol | 1.21 ± 0.026 kcal/mol
9 | SAGGSAGGMEEIEIEINGKKAKIYRLPGDEDLFLIEVDGELYLVKVKKKDGKWEIVEVKKLDELSAGGSAGG [r6_915_TrROS_Hall] | 4.25 ± 0.091 kcal/mol | 4.13 ± 0.16 kcal/mol | 4.17 ± 0.29 kcal/mol
10 | SEVKLEVEEEEDGTLRVRLEVKLTREDGREVTRELELELTIELPPVEFETEEERRAALERLLEELEKLLESA [r9_790_TrROS_Hall] | 3.89 ± 0.18 kcal/mol | 3.52 ± 0.13 kcal/mol | 3.18 ± 0.075 kcal/mol
11 | SAGGSAGGSAGGNIEVLPIPDGYWVIKIPDGRIMVFNPGRGEFEPIPIENVTIEPVRPGDSAGGSAGGSAGG [r7_656_TrROS] | 0.929 ± 0.055 kcal/mol | 0.783 ± 0.076 kcal/mol | 0.4 ± 0.021 kcal/mol
12 | SAGGSAEPLVYELPDGTVVLLPPTTAVVYHRLSDGRVVVVGLEVDDPPDPEKALARARAVVEALPDSAGGSA [r15_748_TrMRF] | 1.6 ± 0.11 kcal/mol | 1.26 ± 0.13 kcal/mol | 0.067 ± 0.25 kcal/mol
13 | SAGGSAGGSASVKVEEKPTEIVITTKSPSPVITVETIPLSPDGVPVGKKTTTISLPPKDIILSAGGSAGGSA [r18_300_JUSTAS] | -0.778 ± 0.15 kcal/mol | -0.719 ± 0.47 kcal/mol | -0.3 ± 0.11 kcal/mol
14 | SAGGSAGGSMVPGKLLVTITDPNNGLTTTLDLPLEVKTEEDIEAEVQKIKEENPGKKVSVKLLSAGGSAGGS [r12_65_JUSTAS] | 1.687 ± 0.013 kcal/mol | 1.69 ± 0.054 kcal/mol | 1.65 ± 0.057 kcal/mol
15 | SAGGSAGGSAGGSMLPPDTTVTSTTFLPNGTVVNTTTTYTATPDDTYTVTTTTTTTPLTSSAGGSAGGSAGG [r7_249_JUSTAS] | 0.631 ± 0.16 kcal/mol | 0.766 ± 0.11 kcal/mol | 0.765 ± 0.037 kcal/mol
16 | SMPLLVKVDTPEQREKLLKVLEEIEKETDIKIELVSEHPDGKYEFLIEAPLEEAVKIAKKLKEAGNVEIVSA [r9_472_TrMRF] | 3.48 ± 0.12 kcal/mol | 3.7 ± 0.1 kcal/mol | 3.89 ± 0.19 kcal/mol
17 | SAGGSAGGSAGGSGMTYRTVEIEVRLPEVPGKTVKITIVVPEGATEEEIKALAEELARKSAGGSAGGSAGGS [r4_442_TrROS_Hall] | 2.88 ± 0.039 kcal/mol | 2.94 ± 0.12 kcal/mol | 2.87 ± 0.14 kcal/mol
18 | SAGGSAGGSAGGSPVSPKIVTTDPGPNVITTVYYSPEDGKVLSTSTTVVPPLPPGEILTSAGGSAGGSAGGS [r10_1051_JUSTAS] | 0.817 ± 0.21 kcal/mol | 1 ± 0.32 kcal/mol | 1.45 ± 0.085 kcal/mol
19 | SAGGSAGGSKITIKLIKNGEIVEEKEIEDKKTGKKIKIKAIKKDGKLYLVIEVDGKKYVIPLPSAGGSAGGS [r12_994_TrROS_Hall] | 3.93 ± 0.089 kcal/mol | 3.57 ± 0.39 kcal/mol | 2.02 ± 0.23 kcal/mol
20 | SAGGSADEELLEKAKEALKKAEPPKIVVLNLPLPSGKELKVTLDPTTNKFTAEFPDGGSKTFDFPESAGGSA [r15_977_JUSTAS] | 0.86 ± 0.096 kcal/mol | 0.858 ± 0.12 kcal/mol | 1.05 ± 0.11 kcal/mol
21 | SAGGKMVKIEITLSPEEIEKIKEKLEEETGLEVEIKVEKNENGEVKLIITFKSEEAAKKALEKLGIESAGGS [r16_172_TrROS_Hall] | 3.7 ± 0.15 kcal/mol | 3.42 ± 0.14 kcal/mol | 2.63 ± 0.16 kcal/mol

Row | Sequence | folding stability dG unfold [1] | folding stability dG unfold [2] | folding stability dG unfold [3]
22 | SAGGMPKPVTLPAVIELGAGPAIAVEEFPETGKLVFVFPPTHRIFVFDPNGKLVAEVDVPPDVPVSAVSAGG [r13_507_TrMRF] | 0.973 ± 0.31 kcal/mol | 0.931 ± 0.15 kcal/mol | 0.901 ± 0.053 kcal/mol
23 | SAGGSAGGSAKEYIVRIKVRLKDGEEVEIEITVSEEELEELKKALESLPNIEEAEIEVFPLPSAGGSAGGSA [r18_157_TrROS_Hall] | 3.53 ± 0.043 kcal/mol | 3.63 ± 0.066 kcal/mol | 3.82 ± 0.11 kcal/mol
24 | SAGGSAMKVYKIKLEFENEETGKRVEIEAEVVEVDGELYLVMKAKVVDEETGEEKEIEIVIKLPKESAGGSA [r15_960_TrROS_Hall] | 2.27 ± 0.4 kcal/mol | 2.31 ± 0.21 kcal/mol | 2.48 ± 0.21 kcal/mol
25 | SAEVEIEVVEKDGKLYLVIRVRFPPGLKPGDKVTLTLTLPNGAKVTITRDKDGTRYITIVVELKDLEKLSAG [r14_754_TrROS_Hall] | 5.23 ± 0.13 kcal/mol | 4.69 ± 0.22 kcal/mol | 3.94 ± 0.41 kcal/mol
26 | SAGGLNINLPPGQEIELTLQVTHLFNGGNGDFGSMTHTYEIPIKIKPIPPVPKPEVERDPDGNYKVEDSAGG [r13_401_TrROS] | 0.358 ± 0.26 kcal/mol | 0.296 ± 0.28 kcal/mol | -0.0612 ± 0.076 kcal/mol
27 | SAGGSAGGSAGPLTLTATFLSDYNYAVTVTLTFEVDENGNLSVSGEVEIRPVPPLGPGNASAGGSAGGSAGG [r11_728_TrMRF] | 4.05 ± 0.11 kcal/mol | 3.72 ± 0.15 kcal/mol | 2.42 ± 0.1 kcal/mol
28 | SAGKKKTVTIYLRVETPEEARKLVEELAKKLGAEVTSVEIEKVDGKYYVTVTIKVDGKEIKIVIEFEPSAGG [r19_262_TrROS_Hall] | 3.03 ± 0.031 kcal/mol | 2.67 ± 0.087 kcal/mol | 2.04 ± 0.045 kcal/mol
29 | SMPEKYIVRVEVRGRDGKTVTFEAEATVDSSDFDDFIEAILEAPGLEDADEVRFYVYRLGTGRPEEFTVPSA [r9_97_TrMRF] | 3.03 ± 0.06 kcal/mol | 2.7 ± 0.069 kcal/mol | 2.01 ± 0.069 kcal/mol
30 | SAGGSAGGSAGPTLTLELLFRNEDGSLYAVRVRYDLDTDKVEIEVRRLPPAEPVTVTVEDSAGGSAGGSAGG [r11_657_TrROS_Hall] | 4.26 ± 0.052 kcal/mol | 3.7 ± 0.17 kcal/mol | 2.8 ± 0.12 kcal/mol
31 | PKEIIEFAKKNGFKVKIEPVKVGSEEKAKKLAEEIKKKNNGKVFIIKNPKTGEAVYRIEIYPLKVPKNKKLS [r1_179_TrMRF] | 2.1 ± 0.22 kcal/mol | 1.9 ± 0.43 kcal/mol | 1.37 ± 0.14 kcal/mol
32 | SMIEELSDEEKVALAKELAEEIKKAREGGKPEEIPELIKRLKEVLEAASPPVQEEVLALIKEIKIPPKELSA [r9_182_JUSTAS] | 1.7 ± 0.04 kcal/mol | 2.23 ± 0.076 kcal/mol | 2.82 ± 0.065 kcal/mol
33 | SAGGSAKKPEVTVEIEIVLPKEELEELLEALRKLPGLKVEVEEVEVREDGYVRVKLRITLPPGVKPSAGGSA [r15_441_TrROS_Hall] | 3.48 ± 0.046 kcal/mol | 3.19 ± 0.12 kcal/mol | 2.39 ± 0.062 kcal/mol
34 | SAGGSAGGEIEILPGAKIVRVERRKDGSLLIVVEVDGKLYLFRFKDGKVEVIELPEGASLEELLSAGGSAGG [r6_680_TrROS_Hall] | 4.99 ± 0.086 kcal/mol | 4.92 ± 0.087 kcal/mol | 4.23 ± 0.14 kcal/mol
35 | SGEIIGEQTFPVEDGGKVPVKIYKNPGNLYAEVFNDDDKPIQEQEIPPDDDLEDIENIKLPPGAWVRIYWSA [r9_215_TrROS] | 0.368 ± 0.39 kcal/mol | 0.433 ± 0.3 kcal/mol | 0.205 ± 0.14 kcal/mol
36 | SAGGPVIEVEKEYIPETGLVKVKVRDPSSDRELEIIAPSDLVDKIEKALENAPGTNSEAAVREALRDSAGGS [r8_484_TrMRF] | 0.921 ± 0.032 kcal/mol | 0.402 ± 0.15 kcal/mol | -0.935 ± 0.42 kcal/mol
37 | SAGDALKEAAKPGEEVTVRLRLTLTFTTETFTDDDGRERTVETVTVTVELEARVVAVDPETGELVIELRSAG [r5_5_TrROS_Hall] | 4.19 ± 0.14 kcal/mol | 3.52 ± 0.18 kcal/mol | 2.56 ± 0.12 kcal/mol
38 | SAEEEEVVEVELEIEIEMTPEELEELIEALRKAAEELGFEIEDIEIRVERKEDGTLRVTIRVKIRLPKPSAG [r14_109_TrROS_Hall] | 4.69 ± 0.48 kcal/mol | 4.2 ± 0.23 kcal/mol | 3.68 ± 0.13 kcal/mol
39 | SAGMSITIESDTNAPPDLPDIGEEEKLALAEELKEKALADPRYPDEEVVIVRPFKTPGGARWTITVVVSAGG [r19_132_JUSTAS] | 1.29 ± 0.24 kcal/mol | 1.32 ± 0.17 kcal/mol | 1.31 ± 0.042 kcal/mol
40 | SAGGSAGGSAGMYVITIKLPSGEVIKIKTDPKNPEEAIKKLEPQYPPAEFEVKEVPENEISAGGSAGGSAGG [r11_103_JUSTAS] | -0.198 ± 0.26 kcal/mol | 0.254 ± 0.18 kcal/mol | 0.633 ± 0.041 kcal/mol
41 | SAGKKYKVKKKITLTLEDGSKITIEIVENEDGTVEIKITDSNGKTRTITIPKEKLENMSLEELLKLLKSAGG [r19_47_TrROS_Hall] | 1.73 ± 0.13 kcal/mol | 1.92 ± 0.22 kcal/mol | 1.76 ± 0.1 kcal/mol
